We go through one molecule from patent publication CN113564213A.

Test [1] addresses 增强型荧光蛋白eGFP (eGFP的A206K突变体, mEGFP). The test is described as follows: bead capture from 2 mL eGFP IVTT liquid, eGFP in excess, 1 h; fluorescence (RFU) of Total against Flow-through.
The target is the same in test [2]. The test is described as follows: bead capture from 1 mL eGFP IVTT liquid, beads in excess, 1 h; fluorescence (RFU) of IVTT supernatant against flow-through.

B1: antiEGFP-mScarlet-Tamvavidin2融合蛋白 (VHH, part only; not given: mScarlet and Tamavidin2 parts, not shown: large carriers)
chain, part: MAQVQLVESGGALVQPGGSLRLSCAASGFPVNRYSMRWYRQAPGKEREWVAGMSSAGDRSSYEDSVKGRFTISRDDARNTVYLQMNSLKPEDTAVYYCNVNVGFEYWGQGTQVTVSS
In test [1], B1 displayed a 载量 (每毫升antiEGFP磁珠结合的eGFP蛋白的质量) of 17.7 mg/mL. Further, in test [2], the 结合效率 worked out at 98.2%.
